{GalNAc3} = trishexylamino-C6 triantennary GalNAc conjugate; e = 2'-O-(2-methoxyethyl) (MOE); d = 2'-deoxy (DNA)
Assays:
BSEP = system: T1, BSEP; test: BSEP inhibition study in Sf9 membrane vesicles; type: in vitro ADME; conditions: 100 μM ASO, 1 μM taurocholate
T1 construct: purchased Life Technologies; host or cells: Sf9 cells (membrane vesicles)
Experimental: The test system included a 96-well flat bottom plate containing a suspension of vesicles and a 96-well glass fiber filtration plate. Transport experiments were initiated with the addition of Mg-ATP (for ATP-dependent BSEP uptake) or AMP (non-ATP-dependent uptake) to appropriate wells. Preparation of the flat-bottom plates included incubation with blocking buffer for 60 min at 37°C with orbital shaking at 120 rpm. After 60 min, the blocking buffer was completely removed and assay uptake buffer solutions were added. For BSEP inhibition studies, solutions contained 1 μM [^3H]-taurocholic acid as a substrate and either assay vehicle, test article (at 100 μM), or reference inhibitor (300 μM rifampicin). For BSEP substrate studies, solutions contained either 1 μM [^3H]-taurocholic acid or 10 μM test article. […] These samples were counted using a 1450 Microbeta (Perkin-Elmer). […] The test article was quantitated by LC-MS.
Signal to noise for the BSEP probe substrate was calculated by dividing the uptake of the probe substrate in BSEP-expressing vesicles in the presence of ATP by the uptake of the BSEP substrate in the vesicles in the presence of AMP. Percent inhibition in the presence of the test article or the reference inhibitors was calculated as: %inhibition=100−(100×(ATP−dependent,transportor−mediatedaccumulation)withinhibitor/(ATP−dependent,transportor−mediatedaccumulation)withoutinhibitor).

CYP3A4 = conditions: ASO 100 μM, human hepatocytes 72 hr, vs PBS 1% vehicle, mean ± SD of triplicate
Experimental: (§1) Upon receipt, sandwich-cultured cryopreserved human hepatocytes (with Matrigel) plated on collagen-coated 24-well plates were inspected under a microscope for general morphology and viability. Fresh culture medium (OptiCulture Hepatocyte Media) was added to each plate that passed the visual inspection. The plates were then placed in an incubator set to 37°C with 5% carbon dioxide (CO2) for overnight acclimation. […] During this time, cells in parallel wells were also treated with 50.0 μM omeprazole (inducer of CYP1A2), 1,000 μM phenobarbital (inducer of CYP2B6), or 10.0 μM rifampicin (inducer of CYP3A4) in triplicate, respectively.
(§2) The plates were then incubated at 37°C with 5% CO2 for 60 min. […] Aliquots of the supernatants were analyzed by LC-MS/MS for the formation of acetaminophen, hydroxyl-bupropion, or hydroxyl-midazolam as markers for enzyme activity of CYP1A2, CYP2B6, and CYP3A4, respectively.
(§3) The activity of each CYP enzyme was measured by comparing the peak area ratio of the corresponding product to the peak area ratio of the internal standard. The fold induction was calculated by dividing the peak area ratio of each individual well from the treatment group by the mean of the peak area ratios obtained from the vehicle control wells. […] The ΔCƬ was calculated as follows: ΔCƬ = CƬ (CYP) − CƬ (GAPDH). […] The ΔΔCƬ was calculated as follows: ΔΔCƬ = Δ CƬ (Treatment) − Δ CƬ (Vehicle). […]

CYP2B6 = CYP2B6 enzyme activity induction in plated human hepatocytes; conditions: ASO 100 μM, human hepatocytes 72 hr, vs PBS 1% vehicle, mean ± SD of triplicate
Experimental: as §1, §2, §3

CYP3A4 mRNA = CYP3A4 mRNA induction in plated human hepatocytes; conditions: ASO 100 μM, human hepatocytes 72 hr, vs PBS 1% vehicle, mean ± SD of triplicate
Experimental: as §1
(§4) After collection of the supernatant for catalytic analysis, the remaining cells were washed and lysed with QIAGEN Buffer RLT from the QIAGEN RNeasy Kit. […]
(§5) The activity of each CYP enzyme was measured by comparing the peak area ratio of the corresponding product to the peak area ratio of the internal standard. The fold induction was calculated by dividing the peak area ratio of each individual well from the treatment group by the mean of the peak area ratios obtained from the vehicle control wells. […] The ΔCƬ was calculated as follows: ΔCƬ = CƬ (CYP) − CƬ (GAPDH). […] The ΔΔCƬ was calculated as follows: ΔΔCƬ = Δ CƬ (Treatment) − Δ CƬ (Vehicle). The fold induction of the target CYP was calculated using the following equation: Fold=2^-ΔΔCT.

OAT3 = system: T2, OAT3; test: OAT3 inhibition study in MDCK cells; type: in vitro ADME; conditions: 100 μM ASO, 10 μM p-aminohippurate
T2 construct: expressed in transfected cells; host or cells: MDCK-II
Experimental: A 96-well cell culture plate containing a monolayer of MDCK-II cells grown on a permeable support and a corresponding receiver tray was used. The basolateral compartment of the culture plate and wells were washed with warm HBSS three times, with wells of the culture plate serving as the apical compartment. The wash was aspirated by adding 150 μL of 37°C HBSS to both compartments. […] The pre-incubation buffer from both compartments was aspirated and 150 μL of the following was added to the basal compartment. […] OATP1B1, 2 μM [^3H]-estradiol-17 β-D-glucuronide; and OATP1B3, 2 μM [^3H]-cholecystokinin octapeptide (CCK-8). […] Plates were incubated at 37°C with orbital shaking at 60 rpm for 5 min. Both sides of the permeable support were washed four times with ice-cold PBS and 60 μL of cell extraction solution was added to each well. Plates were agitated for 15 min at 120 rpm, after which a 30-μL sample of the extract was collected. […] Test article concentrations, including control samples, were evaluated by an LC-MS method. Signal to noise for probe substrates was calculated by dividing the uptake of the probe substrate in transporter-expressing cells by the uptake of probe substrate in control cells not expressing the transporter of interest.

CYP2B6 mRNA = CYP2B6 mRNA induction in plated human hepatocytes; conditions: ASO 100 μM, human hepatocytes 72 hr, vs PBS 1% vehicle, mean ± SD of triplicate
Experimental: as §1, §4, §5

CYP1A2 = CYP1A2 enzyme activity induction in plated human hepatocytes; conditions: ASO 100 μM, human hepatocytes 72 hr, vs PBS 1% vehicle, mean ± SD of triplicate
Experimental: as §1, §2, §3

CYP1A2 mRNA = CYP1A2 mRNA induction in plated human hepatocytes; conditions: ASO 100 μM, human hepatocytes 72 hr, vs PBS 1% vehicle, mean ± SD of triplicate
Experimental: as §1, §4, §5

| Substance | Enhancement of probe substrate uptake, BSEP (BSEP) [%] | Fold induction of CYP3A4 enzyme activity (CYP3A4) [fold] | Fold induction of CYP2B6 enzyme activity (CYP2B6) [fold] | Fold induction of CYP3A4 mRNA (CYP3A4 mRNA) [fold] | Enhancement of probe substrate uptake, OAT3 (OAT3) [%] | Fold induction of CYP2B6 mRNA (CYP2B6 mRNA) [fold] | Fold induction of CYP1A2 enzyme activity (CYP1A2) [fold] | Fold induction of CYP1A2 mRNA (CYP1A2 mRNA) [fold] |
| --- | --- | --- | --- | --- | --- | --- | --- | --- |
| ISIS 304801: 20-mer (5-10-5) 2′-MOE gapmer PS backbone antisense inhibitor of apoC-III, sequence AGCTTCTTGTCCAGCTTTAT (sugars from the 5' end e5 d10 e5, all phosphorothioate, methylation of C not given here) | 21.0 |  |  |  |  |  |  |  |
| ISIS 681257: 20-mer 2′-MOE gapmer PS/PO mixed backbone ASO conjugated to 5′-trishexylamino GalNAc3, targets Lp(a), sequence TGCTCCGTTGGTGCTTGTTC (5' {GalNAc3}, sugars by position and backbone not given here; 2'-MOE gapmer with mixed PS/PO backbone) |  | 1.67 ± 0.310 | 1.20 ± 0.389 | 0.213 ± 0.0471 | 18.2 | 1.36 ± 0.347 | 1.40 ± 0.116 | 1.71 ± 0.0853 |

Reference: paper PMC5602538, “Assessment of the Drug Interaction Potential of Unconjugated and GalNAc3-Conjugated 2′-MOE-ASOs” (Molecular Therapy. Nucleic Acids, 2017)
